Laboratory results as given in article doi:10.1101/2024.07.31.606116.

How the values were obtained:
[1] = biological target: RAMP1 ECD-CTR ECD fusion protein (human) (UniProt O60894); assay: fluorescence polarisation
[2] = biological target: RAMP3 ECD-CTR ECD fusion protein (human) (UniProt O60896); assay: fluorescence polarisation
[3] = biological target: full-length human calcitonin receptor C-terminally tagged with NanoLuc luciferase (human) (UniProt P30988)
[4] = biological target: calcitonin receptor (CTR) extracellular domain (ECD) (human); assay: fluorescence polarisation
amylin receptor ECDs = assay: fluorescence polarisation
[5] = biological target: RAMP2 ECD-CTR ECD fusion protein (human) (UniProt O60895); assay: fluorescence polarisation
Chain of UniProt O60895 (O60895 whole entry, looked up, the tested form may be a part): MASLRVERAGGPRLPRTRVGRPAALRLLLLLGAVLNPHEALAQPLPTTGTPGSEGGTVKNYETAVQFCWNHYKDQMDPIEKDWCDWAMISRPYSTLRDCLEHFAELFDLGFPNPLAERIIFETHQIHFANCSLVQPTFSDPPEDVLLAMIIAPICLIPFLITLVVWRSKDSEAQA

Chain of UniProt O60894 (O60894 whole entry, the tested form may be a part): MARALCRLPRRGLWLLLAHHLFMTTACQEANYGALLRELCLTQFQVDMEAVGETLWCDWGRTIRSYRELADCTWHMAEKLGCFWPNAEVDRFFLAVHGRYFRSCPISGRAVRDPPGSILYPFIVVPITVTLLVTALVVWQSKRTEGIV
Chain of UniProt O60896 (O60896 whole entry, the tested form may be a part): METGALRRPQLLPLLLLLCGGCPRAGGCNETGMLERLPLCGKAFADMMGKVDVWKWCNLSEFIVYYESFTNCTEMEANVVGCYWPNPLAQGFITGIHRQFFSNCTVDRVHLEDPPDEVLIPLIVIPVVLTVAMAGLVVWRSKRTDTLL
Chain of UniProt P30988 (P30988 25-474): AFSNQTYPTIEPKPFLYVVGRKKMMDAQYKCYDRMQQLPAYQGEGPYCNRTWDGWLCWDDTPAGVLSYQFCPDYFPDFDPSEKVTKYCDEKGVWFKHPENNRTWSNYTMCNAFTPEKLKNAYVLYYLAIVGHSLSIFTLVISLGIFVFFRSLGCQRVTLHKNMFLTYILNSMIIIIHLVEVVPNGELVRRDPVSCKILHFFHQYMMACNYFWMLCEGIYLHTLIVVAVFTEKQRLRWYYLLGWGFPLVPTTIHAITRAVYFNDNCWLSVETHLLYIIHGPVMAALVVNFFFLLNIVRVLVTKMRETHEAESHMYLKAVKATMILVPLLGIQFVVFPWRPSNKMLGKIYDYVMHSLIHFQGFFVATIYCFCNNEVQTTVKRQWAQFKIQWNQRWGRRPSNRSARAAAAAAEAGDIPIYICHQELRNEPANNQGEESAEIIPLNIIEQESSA

Q: With “rat amylin(27–37) with Y37HYP (hydroxyproline) mutation (peptide)” as the substance, how does the fold increase in affinity over rat amylin(27–37) Y37P [1] read?
A: 5 fold

Q: What about the fold increase in affinity over rat amylin(27–37) Y37P [2] of the same substance?
A: 3 fold

Q: pramlintide (peptide) was tested. Which EC50 of receptor activation (mini-Gs recruitment BRET, HEK293T cells) [3] did it give?
A: 72 nM

Q: How did the fold increase in affinity over rat amylin(27–37) L27Y/Y37P [1] turn out when “rat amylin(27–37) L27Y/Y37P plus P29R (peptide)” was run?
A: 4 fold

Q: “FITC-labeled salmon calcitonin (sCT) fragment(22–32) (peptide)” was tested. Which Kd [4] did it give?
A: 500 nM

Q: With “rat amylin(27–37) with L27Y and Y37P double mutations (peptide)” as the substance, how does the Ki (amylin receptor ECDs) read?
A: 4000 to 11000 nM

Q: How did the fold decrease in affinity against the peptide with S34P [1] turn out when “rat amylin(27–37) L27Y/Y37P plus S34HYP (hydroxyproline) (peptide)” was run?
A: 9 fold

Q: With “rat amylin(27–37) L27Y/Y37P plus P29K (peptide)” as the substance, how does the fold increase in affinity over rat amylin(27–37) L27Y/Y37P [1] read?
A: 4 fold

Q: How did the fold increase in affinity over rat amylin(27–37) L27Y/Y37P [1] turn out when “rat amylin(27–37) L27Y/Y37P plus S34P (peptide)” was run?
A: 3.6 fold

Q: “rat amylin(27–37) L27Y/Y37P plus S34A (peptide)” was tested. Which fold increase in affinity over rat amylin(27–37) L27Y/Y37P [1] did it give?
A: 2.5 fold

Q: With rat amylin(27–37) L27W/Y37P (peptide) as the substance, how does the fold increase in affinity over rat amylin(27–37) L27Y/Y37P [1] read?
A: 2 fold

Q: With “FITC-labeled AC413(6–25) with Y25P mutation (peptide)” as the substance, how does the Kd [1] read?
A: 77 nM

Q: What about the Kd [5] of the same substance?
A: 67 nM

Q: What about the Kd [2] of the same substance?
A: 252 nM
